Source: patent US20160032013A1 (Genentech, published 2016)

Tests used:
[1] = target: T1, Mouse RON-hIgG1 Fc (murine RON Sema/PSI/IPT1, natural leader + R33-V684, fused to human IgG1 Fc) (mouse); experiment: SPR (Biacore), anti-Fc chip, murine RON-Fc captured and MSP protein injected; table headed 'Similar High Affinities for Murine RON'
T1 construct: also called mRON-hFc; murine RON-Fc
Description: Binding kinetics of RON to MSP β-Fc fusion proteins and MSP proteins to RON-Fc fusions were determined using a Biacore 3000 optical biosensor equipped with a research-grade CM5 sensor chip (GE Healthcare). Amine coupling reagents, N-ethyl-N′-dimethylamino-propylcarbodiimide (EDC), N-hydroxy-succinimide (NHS) and sodium ethanolamine HCl, pH 8.5, were obtained from GE Healthcare. Standard coupling protocols were used to tether a rabbit anti-human IgG1 or rabbit anti-murine IgG2a (Jackson ImmunoResearch Laboratories) onto the biosensor surface. A biosensor chip that was subjected to the amine coupling procedure with no protein coupled was used to correct for non-specific binding. […] Various concentrations (500-3.9 nM, 2-fold dilution series) of RON-His, were injected in HBS-P buffer (10 mM HEPES, pH 7.5, 150 mM NaCl, 0.005% P20) at 25° C. with a flow rate of 30 μL/min and dissociation monitored for 240 sec. Between measurements, the biosensor surfaces were regenerated with a 120 s pulse of 10 mM glycine-HCl pH 1.5 followed by a 120 s wash with running buffer.
To function as a RON agonist, MSPβ-IgG2a fusion proteins must bind the RON receptor. To assay binding, surface plasmon resonance was used to measure the affinity of full-length human MSP, human and mouse MSP β, and a number of human and mouse MSPβ-IgG2a fusions for immobilized RON receptor. […]

[2] = target: T2, Human RON-hIgG1 Fc (RON Sema/PSI/IPT1 fused to human IgG1 Fc) (human); experiment: BLI using RON-Fc at 30 C
T2 construct: also called RON-Fc; hRON-Fc
Description: Real-time kinetic measurements of MSP binding to RON were conducted using an Octet RED384 (ForteBio, Inc). Samples or buffer were dispensed into 96-well microtiter plates (Greiner Bio-One North America, Inc.) at a volume of 200 μl per well. Anti-human IgG Fc Biosensors were used for the experiments. Each experiment consisted of three steps: incubation with ForteBio Kinetic buffer diluted 1:10 in PBS assay buffer to establish an equilibrium for 120 s (baseline), incubation with 10 μg/ml RON-Fc in assay buffer to coat the biosensor with binding target for 900 s (load), incubation with MSP, MSP β or scMSP in assay buffer containing various concentrations (75-4.7 nM, 2-fold dilution series) for 400 s (association), and incubation with assay buffer to measure the off-rate of MSP for 400 s (dissociation). Operating temperature was maintained at 30° C. Data were generated automatically by the Octet Data Acquisition 7.0 software. Each data set was fitted globally to a simple one-to-one binding model using ForteBio Analysis Software 7.0 to determine the kinetic parameters kₐ and kd. The equilibrium dissociation constants (KD) were then calculated as a ratio (koff/kₒₙ) of these rate constants.

[3] = target: T2, Human RON-hIgG1 Fc (RON Sema/PSI/IPT1 …); experiment: SPR capturing RON-Fc at 25 C
Description: To determine MSP protein binding kinetics to hRON-Fc or mRON-Fc fusion proteins, between 50 and 100 response units (RU) were captured on each of three immobilized anti-human Fc surfaces. Various concentrations (50-0.78 nM, 2-fold dilution series) of MSP, MSP β, MSP α or scMSP were injected in HBS-P buffer (10 mM HEPES, pH 7.5, 150 mM NaCl, 0.005% P20) at 25° C. with a flow rate of 30 μL/min and dissociation monitored for 4 min. Between measurements, the biosensor surfaces were regenerated with a 2 min pulse of 10 mM glycine-HCl pH 1.5.

[4] = target: T3, Recombinant human RON Sema/PSI (residues E25-P568) with C-terminal His-tag (human, UniProt Q04912 25-568); experiment: SPR using immobilized RON Sema/PSI at 25 C
T3 construct: Made in Trichoplusia ni insect cells

[5] = target: T4, Human RON on cells (3T3-hRON, A2780-hRON, BxPC3, human primary colon cells) (human, UniProt Q04912 25-1400); experiment: radioligand binding to 3T3-hRON cells for 4 h on ice
T4 construct: That is its entry for human RON

[6] = target: T4, Human RON on cells (3T3-hRON, …); experiment: radioligand binding to 3T3-hRON cells for 2 h at room temperature
Description: (§1) MSP proteins were iodinated using the Iodogen method (Thermo Scientific) and purified from free Na¹²⁵I by gel filtration using a NAP-5 column. Specific activities ranged from 12.26 to 18.65 μCi/μg. Competition reaction mixtures were made of a fixed concentration of iodinated MSP and unlabeled MSP serially diluted 1- to 2-fold ten times starting at 5 μM in a volume of 50 μL. 3T3-hRon cells were washed with binding buffer, consisting of DMEM with 1% bovine serum albumin, 325 nM human IgG, 50 mM HEPES (pH 7.2) and 0.1% sodium azide. 150,000 cells in 0.2 ml binding buffer were added to competition reaction mixtures. Competition reactions with cells were incubated for 2 h at room temperature and transferred to a Multiscreen filter plate (Millipore) and washed 4 times with binding buffer. Filters were counted on a Wallac Wizard 1470 gamma counter (PerkinElmer Life and Analytical Sciences). Binding affinities were determined using NewLigand software (Genentech, Inc) (Munson et al., 1980, Anal Biochem 107:220-39).

[7] = target: T2, Human RON-hIgG1 Fc (RON Sema/PSI/IPT1 …); experiment: plate binding assay, plate-bound RON-Fc, soluble His-tagged MSP, anti-His-HRP, 4-parameter fit
Excerpt: (§2) Means of three replicates per group are shown. […] C presents results of SPR analysis of MSP proteins binding to immobilized RON Sema/PSI, showing relative response in response units. Data are representative of three independent experiments. […] Competition binding to 3T3-hRON cells (large graphs) used to generate affinities and Scatchard plots (inset graphs) are shown. Mean+/−standard deviation (SD) of three independent experiments is shown. E is a homology model of the structure of RON Sema/PSI (PDB code 4FWW) shown at the bottom, which binds to MSP β (PDB code 2ASU) shown on top. RON and MSP β were globally aligned to the Met/HGF β complex (PDB code 1SHY). Predicted locations of the MSP β contact residues within 4 Å of RON are marked by asterisks. […]
(§3) MaxiSorp plates (Nalge Nunc International) were coated overnight at 4° C. with 2 μg/ml of rabbit anti-human IgG Fc specific antibody (Jackson ImmunoResearch Laboratories) in 50 mM sodium carbonate buffer, pH 9.6. […] Bound MSP was detected using anti-His-HRP (Qiagen Inc.) followed by addition of TMB/H₂O₂ substrate (Thermo Scientific). The reaction was stopped with 1M H₃PO₄ and the absorbance at 450 nm (A₄₅₀) was measured on a SpectraMax Plus³⁸⁴ plate reader (Molecular Devices, LLC). The half maximal effective concentration of MSP (EC₅₀) was determined by a 4-parameter fit using Kaleidagraph (Synergy Software).

[8] = target: T4, Human RON on cells (3T3-hRON, …); experiment: radioligand competition binding on 3T3-hRON cells: fixed 125I-MSP 689C as competitor, unlabeled MSP 689C titrated [Continued) D]
Description: as §1

[9] = target: T2, Human RON-hIgG1 Fc (RON Sema/PSI/IPT1 …); experiment: plate binding assay, plate-bound RON-Fc, soluble His-tagged MSP β, anti-His-HRP, 4-parameter fit
Excerpt: as §2, §3

T2 sequence (chain, as listed by the source limits assumed): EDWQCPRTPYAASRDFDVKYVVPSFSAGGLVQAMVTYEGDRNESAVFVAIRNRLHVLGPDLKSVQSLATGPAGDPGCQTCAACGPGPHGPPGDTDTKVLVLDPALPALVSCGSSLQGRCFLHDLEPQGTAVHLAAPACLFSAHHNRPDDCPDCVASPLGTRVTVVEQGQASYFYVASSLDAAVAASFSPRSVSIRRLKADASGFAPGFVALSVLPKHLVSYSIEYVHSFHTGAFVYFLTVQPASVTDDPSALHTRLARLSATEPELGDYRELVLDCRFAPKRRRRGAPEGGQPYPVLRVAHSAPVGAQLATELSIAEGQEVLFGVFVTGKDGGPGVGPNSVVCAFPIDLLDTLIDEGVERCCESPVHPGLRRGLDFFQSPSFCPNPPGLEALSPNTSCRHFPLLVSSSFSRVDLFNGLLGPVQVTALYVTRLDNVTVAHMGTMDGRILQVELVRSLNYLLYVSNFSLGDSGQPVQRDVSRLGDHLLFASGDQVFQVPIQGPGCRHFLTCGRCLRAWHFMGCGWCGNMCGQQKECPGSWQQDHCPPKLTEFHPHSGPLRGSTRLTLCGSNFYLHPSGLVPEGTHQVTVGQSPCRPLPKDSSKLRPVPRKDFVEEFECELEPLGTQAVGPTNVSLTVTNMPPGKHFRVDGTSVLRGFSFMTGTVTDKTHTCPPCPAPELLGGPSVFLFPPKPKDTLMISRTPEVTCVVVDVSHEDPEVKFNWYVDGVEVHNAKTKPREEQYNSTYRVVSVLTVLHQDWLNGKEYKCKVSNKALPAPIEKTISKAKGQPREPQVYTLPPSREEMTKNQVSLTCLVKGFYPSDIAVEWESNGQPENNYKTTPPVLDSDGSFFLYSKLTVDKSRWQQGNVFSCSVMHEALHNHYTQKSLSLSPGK

Kd [1] [nM] | Kd [2] [nM] | Kd [3] [nM] | koff [3] [s⁻¹] | kon [3] [M⁻¹ s⁻¹] | Kd [4] [nM] | koff [4] [s⁻¹] | kon [4] [M⁻¹ s⁻¹] | Kd [5] [nM] | Kd [6] [nM] | EC50 [7] [nM] | IC50 (read off the curve) [8] [nM] | EC50 [9] [nM] | koff [2] [s⁻¹] | kon [2] [M⁻¹ s⁻¹] | Binder
6.4 |  |  |  |  |  |  |  |  |  |  |  |  |  |  | Hexahistidine-tagged murine MSP β (HGF leader + V489-E716 + C593A + C677A + His tag) (ligand, also called Mouse MSP β) VVGGHPGNSPWTVSLRNRQGQHFCGGSLVKEQWVLTARQCIWSCHEPLTGYEVWLGTINQNPQPGEANLQRVPVAKAVCGPAGSQLVLLKLERPVILNHHVALIALPPEQYVVPPGTKCEIAGWGESIGTSNNTVLHVASMNVISNQECNTKYRGHIQESEICTQGLVVPVGACEGDYGGPLACYTHDAWVLQGLIIPNRVCARPRWPAIFTRVSVFVDWINKVMLEHHHHHHH
 |  | 9.7 | 0.0079 | 870000 |  |  |  |  |  |  |  | 0.1 |  |  | Human MSP β R689C with wild-type C672 (HGF leader + V484-G711 + C588S + C672C + R689C + His tag) (ligand) VVGGHPGNSPWTVSLRNRQGQHFCGGSLVKEQWILTARQCFSSCHMPLTGYEVWLGTLFQNPQHGEPSLQRVPVAKMVCGPSGSQLVLLKLERSVTLNQRVALISLPPEWYVVPPGTKCEIAGWGETKGTGNDTVLNVALLNVISNQECNIKHRGRVRESEMCTEGLLAPVGACEGDYGGPLACFTHNCWVLEGIIIPNRVCARSCWPAVFTRVSVFVDWIHKVMRLGHHHHHH
5.1 | 7.5 | 9.6 | 0.0275 | 3.53e+06 | 6.6 | 0.0159 | 2.45e+06 |  |  |  |  |  | 0.0025 | 388000 | Human MSP β 689R (HGF leader + V484-G711 + C588S + C672A + His tag) (ligand, This is an inference) VVGGHPGNSPWTVSLRNRQGQHFCGGSLVKEQWILTARQCFSSCHMPLTGYEVWLGTLFQNPQHGEPSLQRVPVAKMVCGPSGSQLVLLKLERSVTLNQRVALISLPPEWYVVPPGTKCEIAGWGETKGTGNDTVLNVALLNVISNQECNIKHRGRVRESEMCTEGLLAPVGACEGDYGGPLACFTHNAWVLEGIIIPNRVCARSRWPAVFTRVSVFVDWIHKVMRLGHHHHHH

Continued, binder first:

Binder | Kd [1] [nM] | Kd [2] [nM] | Kd [3] [nM] | koff [3] [s⁻¹] | kon [3] [M⁻¹ s⁻¹] | Kd [4] [nM] | koff [4] [s⁻¹] | kon [4] [M⁻¹ s⁻¹] | Kd [5] [nM] | Kd [6] [nM] | EC50 [7] [nM] | IC50 (read off the curve) [8] [nM] | EC50 [9] [nM] | koff [2] [s⁻¹] | kon [2] [M⁻¹ s⁻¹]
Full length human MSP R689C (wild type + C672A + R689C + His tag), active two-chain form (ligand) chain 1: QRSPLNDFQVLRGTELQHLLHAVVPGPWQEDVADAEECAGRCGPLMDCRAFHYNVSSHGCQLLPWTQHSPHTRLRRSGRCDLFQKKDYVRTCIMNNGVGYRGTMATTVGGLPCQAWSHKFPNDHKYTPTLRNGLEENFCRNPDGDPGGPWCYTTDPAVRFQSCGIKSCREAACVWCNGEEYRGAVDRTESGRECQRWDLQHPHQHPFEPGKFLDQGLDDNYCRNPDGSERPWCYTTDPQIEREFCDLPRCGSEAQPRQEATTVSCFRGKGEGYRGTANTTTAGVPCQRWDAQIPHQHRFTPEKYACKDLRENFCRNPDGSEAPWCFTLRPGMRAAFCYQIRRCTDDVRPQDCYHGAGEQYRGTVSKTRKGVQCQRWSAETPHKPQFTFTSEPHAQLEENFCRNPDGDSHGPWCYTMDPRTPFDYCALRRCADDQPPSILDPPDQVQFEKCGKRVDRLDQRRSKLR chain 2: VVGGHPGNSPWTVSLRNRQGQHFCGGSLVKEQWILTARQCFSSCHMPLTGYEVWLGTLFQNPQHGEPSLQRVPVAKMVCGPSGSQLVLLKLERSVTLNQRVALICLPPEWYVVPPGTKCEIAGWGETKGTGNDTVLNVALLNVISNQECNIKHRGRVRESEMCTEGLLAPVGACEGDYGGPLACFTHNAWVLEGIIIPNRVCARSCWPAVFTRVSVFVDWIHKVMRLGHHHHHH |  | 9.4 | 9.6 | ~0.0016 | ~170000 | 9.6 | 0.0012 | 116000 | 25.7 | 13 | 0.2 | ~10 |  |  | 
Human MSP β 689R with wild-type C672 (HGF leader + V484-G711 + C588S + C672C + His tag) (ligand) VVGGHPGNSPWTVSLRNRQGQHFCGGSLVKEQWILTARQCFSSCHMPLTGYEVWLGTLFQNPQHGEPSLQRVPVAKMVCGPSGSQLVLLKLERSVTLNQRVALISLPPEWYVVPPGTKCEIAGWGETKGTGNDTVLNVALLNVISNQECNIKHRGRVRESEMCTEGLLAPVGACEGDYGGPLACFTHNCWVLEGIIIPNRVCARSRWPAVFTRVSVFVDWIHKVMRLGHHHHHH |  |  |  |  |  |  |  |  |  |  |  |  | 0.05 |  | 
